Results on 16 molecules are retold here after patent US20240101687A1 (ABL BIO, published 2024).

Positions count from the first letter of the chain named. Names and notes keep the numbering of the source. Values joined by “and” are separate entries in the source; they are usually repeats but may differ in a detail not shown here. Identical values can stand only once.

One assay addresses T1, human gamma-synuclein (human, UniProt O76070 1-127, limits assumed).
T1 construct: bought
The experiment in a line: ELISA, human gamma-synuclein coated at 100 ng/ml. Background: An ELISA detects its analyte on a solid surface through an enzyme-linked reagent.

For assay [1], the target named is T2, amyloid beta1-42 aggregates (UniProt P05067 672-713).
T2 construct: domain: amyloid beta1-42; aggregates prepared by Prof; Seung-jae Lee; also called amyloid beta1-42-derived aggregates
The experiment in a line: dot blot, monomer and fibril of each protein spotted in rising amounts, antibody as probe.
Experimental: (§1) The specific binding ability of the antibodies to the alpha-synuclein aggregate was analyzed by reacting with a blot.

Another assay has as its target T3, Aβ42 (Monomer) (human, UniProt P05067).
T3 construct: recombinant, monomer (not aggregated); m20 is the aggregated form; also called amyloid beta1-42 monomer
Described as above.

Assay [2] has as its target human alpha-synuclein monomer (human, UniProt P37840 1-140). The experiment in a line: SPR (BIAcore), antibody captured on Protein A chip, alpha-Syn monomer as analyte, 1:1 binding fit to a flat sensorgram, 25 C. For orientation: In SPR one partner is held on a chip, and binding of the other changes the refractive index at the surface.
The target in another assay is T4, human beta-synuclein (human, UniProt Q16143 1-134, limits assumed).
T4 construct: bought
T4 sequence (Q16143 whole entry): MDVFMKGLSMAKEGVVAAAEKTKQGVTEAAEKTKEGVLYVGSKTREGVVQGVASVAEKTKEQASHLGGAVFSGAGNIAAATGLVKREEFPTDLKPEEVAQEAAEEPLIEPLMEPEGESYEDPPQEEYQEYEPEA
Kind of assay: ELISA, human beta-synuclein coated at 100 ng/ml.

The target of the next assay is T5, Tau protein aggregates (UniProt P10636-8 1-441, limits assumed).
T5 construct: aggregates prepared by Prof; Seung-jae Lee; also called tau-derived aggregates
T5 sequence (P10636 other isoform, or with tags, fused parts or gaps limits assumed): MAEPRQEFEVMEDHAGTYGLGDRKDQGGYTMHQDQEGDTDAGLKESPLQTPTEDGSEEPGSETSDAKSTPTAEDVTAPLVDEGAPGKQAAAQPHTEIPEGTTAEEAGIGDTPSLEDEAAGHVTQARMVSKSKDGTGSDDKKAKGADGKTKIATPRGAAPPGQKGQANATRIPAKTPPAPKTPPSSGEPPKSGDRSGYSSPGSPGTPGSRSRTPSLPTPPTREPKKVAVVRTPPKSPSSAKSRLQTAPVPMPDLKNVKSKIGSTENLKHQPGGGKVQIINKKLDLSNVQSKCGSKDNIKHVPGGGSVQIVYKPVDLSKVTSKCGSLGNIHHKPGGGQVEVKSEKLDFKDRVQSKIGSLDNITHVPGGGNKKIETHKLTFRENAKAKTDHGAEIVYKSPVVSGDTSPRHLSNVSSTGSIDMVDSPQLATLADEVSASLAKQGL
Kind of assay: dot blot.

The target in assay [3] is T6, human alpha-synuclein aggregates (fibrils) (human, UniProt P37840 1-140). The experiment in a line: SPR (BIAcore), antibody captured on Protein A chip, alpha-Syn fibril as analyte, 1:1 binding fit, 25 C.
For assay [4], the target named is T6, human alpha-synuclein aggregates …. Kind of assay: Octet (BLI), fibrils; table of results. For orientation: In BLI a coated tip is dipped into the sample, and binding shifts an interference pattern.
Experimental: The target concentrations were 20 μg/ml for the monomer and 0.4 μg/ml for the fibril. The kinetics concentration was diluted sequentially two times from 50 nM for monomers and from 100 nM for fibrils, to give 7 points in total, respectively. Association/dissociation time was 5 min/20 min for monomer and 5 min/25 min for fibril. Biosensor was ARG2 and fitting was performed using 1:1 fitting model.
The target is the same in assay [5]. Kind of assay: SPR (BIAcore), fibrils; table of results.
Experimental: (§2) The running buffer, analyte dilution, and the sample dilution buffer were HBS-EP. […] For the capture, the monomer was for RU of 800 (theoretical), and a fibril was for RU of 100 (theoretical). The capture phase was performed at contact time of 60 seconds, a flow rate of 30 μl/min, and a stabilization period of 180 seconds. The association phase was performed at the association time of 120 seconds and the flow rate was 30 μl/min. The dissociation phase was performed at the dissociation time of 360 seconds and the flow rate of 30 l/min. The regeneration phase was performed twice time at the regeneration time of 240 seconds (primary) and 60 seconds (secondary) and a flow rate of 30 μl/min. The fitting was carried out suing 1:1 binding model, and the evaluation software was BIACore T200 Evaluation software (GE healthcare).
The target is the same in assay [6]. Kind of assay: sandwich ELISA, antibody coated at 1 ug/ml, alpha-synuclein fibril aggregates titrated.
Experimental: ELISA analysis was performed to quantitatively analyze the binding affinity of the antibody of the present invention to the antigen. […] After washing with PBS, streptavidin conjugated with HRP and secondary antibody conjugate with biotin was treated and then reacted with TMB as a substrate.
Assay [7] deals with T7, human IGF1R extracellular domain, His-tagged (human, UniProt P08069 31-932).
T7 construct: Bought (R&D Systems 391-GR or Sino Biological 10164-H08H); also called recombinant IGF1R; ECD of IGF1R
Kind of assay: ELISA, hIGF1R coated, minibody titrated 0.000256-20 nM, Abs. at 450 nm.
Experimental: Human IGF1R was diluted with 1 ug/ml in PBS buffer, added at an amount of 100 ul per well in 96-well ELISA plate (Nunc-Immuno Plates, NUNC, Rochester, NY), coated by reacting at 4° C. for 16 hours, and then the supernatant was removed. PBS buffer containing 3% BSA (bovine serum albumin) was added to 200 ul per well and reacted for 2 hours to block non-specific binding.
After treatment, it was wash 4 times with PBS buffer containing 0.05% Tween20, and was reacted at room temperature for an hour by adding 100 ul of the anti-human HRP recognizing human Fe of the minibody diluted in blocking buffer at 1:5000 per each well. After washing 4 times with 300 ul of PBS-T (Tween20 0.05%), the color development was performed using TMB (Tetramethylbenzidine, Sigma, T0440).

The target of assay [8] is T7, human IGF1R extracellular domain, …. The experiment in a line: ELISA on IGF1R protein, first experiment.
Assay [9] shares this target. The experiment in a line: ELISA on IGF1R protein, third experiment.
The target is the same in assay [10]. The experiment in a line: ELISA on IGF1R protein, second experiment.
In assay [11] the target is T6, human alpha-synuclein aggregates …. The experiment in a line: SPR (BIAcore), antibody captured on Protein A chip, alpha-synuclein fibril (sample aSyn180330) as analyte, 1:1 binding fit, 25 C.
Experimental: as §2
For assay [12] the target is unchanged. Kind of assay: sandwich ELISA, antibody coated in a dilution series, synuclein fibril aggregates at 2000 ng/ml; C of the 4-P fit, which paragraph 260 calls EC50.
Experimental: Specifically, each antibody was diluted at 1/10 ratio of concentrations 0.04 to 400 nM and was coated on a 96-well plate, and then each well was treated with synuclein fibril aggregates were treated at 2000 ng/ml. After washing with 1×PBS, streptavidin conjugated with HRP and secondary antibody conjugate with biotin was treated and then reacted with TMB as a substrate. The absorbance was measured.
Assay [13] shares this target. Kind of assay: BIAcore as in Example 4-3, α-syn aggregates.
Experimental: as §2

Usually koff stands for the first-order rate constant of dissociation. Read a high koff as a short-lived complex. By kon is commonly meant a measure of how fast the partners come together. A high value points to fast association. The term Kd denotes a measure of binding affinity in units of concentration. A high value points to weaker binding. For orientation: EC50 means the midpoint of the concentration-response curve. Read a low EC50 as greater potency. The EC50 (read off the curve) is the concentration that produces a half-maximal response. A low value points to higher potency in that assay.

T1 sequence (O76070 whole entry): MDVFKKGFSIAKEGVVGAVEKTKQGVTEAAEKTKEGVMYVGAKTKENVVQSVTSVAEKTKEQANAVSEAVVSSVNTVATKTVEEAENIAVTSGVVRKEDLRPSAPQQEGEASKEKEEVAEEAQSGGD
Experimental for Aβ42 (Monomer): as §1
Text for human beta-synuclein: (§3) For the positive control, RP-bound goat anti-rabbit was used as a detection antibody.
Text for human gamma-synuclein: as §3

B1: chimeric 3A9 antibody (antibody, V domains shown)
VH: EVQLQESGGGLVKPGGSLKLSCAASGFTFSSYAMSWVRQTPEKRLEWVATISNGGGYTYYPDSVKGRFTISRDNAKNTLYLQMSSLRSEDTAMYYCARHITTVRPTKYFDYWGQGTTLTVSS
VL: DIVMTQSPKFMSTSVGDRVSITCKASQNVGTTVAWYQQKPGQSPKLLIYSASNRYTGVPDRFTGSGSGTDFTLTISNMQSEDLADYFCQQYSNYPLTFGAGTKLELR
notes: also called Ch 3A9; ch3A9
With B1, the binding result (with human gamma-synuclein; in assay [1]; with Aβ42 (Monomer); with human beta-synuclein; with Tau protein aggregates) was “no binding” in each case. Further, the values for the koff in assay [2] and in [3] were 0.00186 s⁻¹ and 7.42e-05 s⁻¹, respectively. In [3], this molecule returned a kon of 631000 M⁻¹ s⁻¹.

B2: 3A9 (mouse monoclonal anti-alpha-synuclein antibody) (antibody, mouse IgG2b, V domains shown)
VH: B1 VH
VL: B1 VL
Regarding B2, the Kd was 0.13 nM in [4] and 1.32 nM in assay [5]. For the same molecule, in assay [6], the EC50 was 0.319 µg/mL and 2.13 nM.

B3: 996 minibody (Fc fusion, not shown: a dimerising Fc or GST)
chain: QSVLTQPPSASGTPGQRVTISCTGSSSNIGSNAVNWYQQLPGTAPKLLIYSNSHRPSGVPDRFSGSKSGTSASLAISGLRSEDEADYYCATWDYSLSGYVFGCGTKLTVLGGGGSGGGGSGGGGSGGGGSEVQLLESGGGLVQTGGSLRLSCAASGFTFSSYDMSWVRQAPGKCLEWVSGIYHDGSSTYYADSVQGRFTISRDNSKNTLYLQMNSLRAEDTAVYYCARVSGTLSEPYAFFFNAMDVWGQGTLVTVSS
For B3, the “EC50 (read off the curve)” value in assay [7] was around 0.3 nM.

B4: 1564 clone (anti-IGF1R antibody, format not stated) (antibody, V domains shown)
VH: EVQLLESGGGLVQPGGSLRLSCAASGFTFSSYDMSWVRQAPGKGLEWVSAISYDNGNTYYADSVKGRFTISRDNSKNTLYLQMNSLRAEDTAVYYCAKGVLTTLMNWFDYWGQGTLVTVSS
VL: QSVLTQPPSASGTPGQRVTISCTGSSSNIGSNDVSWYQQLPGTAPKLLIYANSNRPSGVPDRFSGSKSGTSASLAISGLRSEDEADYYCGAWDDSLNGYVFGGGTKLTVL
As to B4, the EC50 in [8] worked out at 2.15 nM; in assay [9] it was 6.87 nM; in assay [10], 2.66 nM. Also, the Saturation value was 1.1 in assay [8] and 0.977 in assay [10].

B5: 1564-VL(N95aD) (antibody, V domains shown)
VH: B4 VH
VL: B4 VL with P60S, N97D
In the case of B5, in assay [10], the concentration for a half-maximal effect (EC50) amounted to 2.07 nM and the Saturation value is 0.896.

B6: 1564-VH(N54D) (antibody, V domains shown)
VH: B4 VH with N55D
VL: B4 VL
As for B6, in assay [10], the EC50 was found to be 2.89 nM and the Saturation value stood at 0.933.

B7: 1564-VL(N95aK) (antibody, V domains shown)
VH: B4 VH
VL: B4 VL with P60S, N97K
In [8], B7 gave an EC50 of 2.07 nM and a Saturation value of 1.18.

B8: 1564-VH(N54Q) (antibody, V domains shown)
VH: B4 VH with N55Q
VL: B4 VL
Regarding B8, in assay [10], the concentration giving a half-maximal response (EC50) turned out to be 2.2 nM and the Saturation value is 0.885.

B9: 1564-VL(N95aH) (antibody, V domains shown)
VH: B4 VH
VL: B4 VL with P60S, N97H
In assay [8], B9 displayed an EC50 of 2.63 nM and a Saturation value of 1.08.

B10: 1564-VL(N51D) (antibody, V domains shown)
VH: B4 VH
VL: B4 VL with N52D, P60S
B10 displayed an EC50 in assay [9] of 7.35 nM.

B11: 11F11 (mouse monoclonal anti-alpha-synuclein antibody) (antibody, mouse IgG2b, V domains shown)
VH: EVQLQESGGGLVQPGGSLRLSCATSGFTFSDFYMEWVRQPPGKRLEWIAASRNKANDYTTEYSASVKGRFIVSRDTSQSILYLQMNALRAEDTAIYYCARDAHGKPFAYWGQGTLVTVSA
VL: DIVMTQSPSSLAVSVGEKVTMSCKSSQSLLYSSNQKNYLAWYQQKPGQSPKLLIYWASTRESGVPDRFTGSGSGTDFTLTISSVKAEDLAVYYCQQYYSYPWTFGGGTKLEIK
Regarding B11, the figures for the equilibrium dissociation constant (Kd) in assay [4] and in [5] were 0.16 nM and 2.87 nM, respectively. In assay [6], the EC50 is 0.327 µg/mL and 2.18 nM.

B12: hu11F11(ver.1) (antibody, human IgG1, kappa, V domains shown)
VH: B11 VH with Q5V, I71T, V72I, T76D, Q78K, I80S, A87S, L115T, A120S
VL: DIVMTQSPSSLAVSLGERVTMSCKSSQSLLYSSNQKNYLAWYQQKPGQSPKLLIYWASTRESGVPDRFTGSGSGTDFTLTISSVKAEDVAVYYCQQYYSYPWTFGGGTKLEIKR
notes: humanized IgG1; also called Hu11F11-VH-v1 + Hu11F11-VLv3 4c
In [11], B12 had a koff of 5.36e-05 s⁻¹ and an on-rate constant (kon) of 845000 M⁻¹ s⁻¹. The molecule further showed an EC50 in assay [12] of 11.5 nM.

B13: hu11F11(ver.3) (antibody, human IgG1, kappa, V domains shown)
VH: B11 VH with Q5V, I71T, V72I, Q78K, I80S, A87S, L115T, A120S
VL: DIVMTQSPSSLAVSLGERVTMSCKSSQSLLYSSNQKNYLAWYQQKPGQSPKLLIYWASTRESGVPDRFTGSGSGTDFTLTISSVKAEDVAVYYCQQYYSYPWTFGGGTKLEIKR
notes: humanized IgG1; also called Hu11F11-VH-v3 + Hu11F11-VLv3 4c
Regarding B13, the kon in [11] was 1.07e+06 M⁻¹ s⁻¹. Moreover, in assay [12], the response was half-maximal at 13.4 nM (EC50). The molecule further yielded a Kd in assay [13] of 0.0316 nM.

B14: hu11F11(ver.4) (antibody, human IgG1, kappa, V domains shown)
VH: B11 VH with Q5V, I71T, Q78K, I80S, A87S, L115T, A120S
VL: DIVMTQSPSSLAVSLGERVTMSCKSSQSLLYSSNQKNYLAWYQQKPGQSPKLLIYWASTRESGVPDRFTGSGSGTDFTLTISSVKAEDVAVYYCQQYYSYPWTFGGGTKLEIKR
notes: humanized IgG1; also called Hu11F11-VH-v4 + Hu11F11-VLv3 4c
Consider B14, for which, in [11], the koff was determined as 0.000291 s⁻¹ and the kon amounted to 1.07e+06 M⁻¹ s⁻¹. In addition, in assay [12], the concentration giving a half-maximal response (EC50) turned out to be 12.9 nM. Further, the Kd in assay [13] is 0.0204 nM.

B15: chimeric 9B11 antibody (antibody, V domains shown)
VH: EVQLQESGGGLVQPKGSLKLSCAASGFTFNTYAMNWVRQAPGKGLEWVARIRSKSNNYATYYADSVKDRFTISRDDSQSMLYLQMNNLKTEDTAMYYCVRQDFDYWGQGTTLTVSS
VL: DIVMTQSPLSLPVSLGDQASISCRSSQSLVHSNGNTYLHWYLQKPGQSPKLLIYKVSNRFSGVPDRFSGSGSGTDFTLKISRVEAEDLGVYFCSQSTHVPLTFGAGTKLEQK
notes: also called ch9B11; 9B11 (chimeric)
In the case of B15, the binding result (with human gamma-synuclein; in assay [1]; with Aβ42 (Monomer); with human beta-synuclein; in the assay with Tau protein aggregates) was “no binding” each time. Further, the koff in [2] is 0.000571 s⁻¹; in [3], 4.39e-05 s⁻¹. Moreover, the kon is 2210 M⁻¹ s⁻¹ in [2] and 629000 M⁻¹ s⁻¹ in assay [3].

B16: 9B11 (mouse monoclonal anti-alpha-synuclein antibody) (antibody, V domains shown)
VH: B15 VH
VL: B15 VL
As to B16, the values for the dissociation constant Kd in assay [4] and in assay [5] were 0.018 nM and 0.904 nM, respectively. For the same molecule, in assay [6], the EC50 was 0.185 µg/mL and 1.23 nM.
